What all share (test): BLI
One assay addresses T1, Siglec-10 Fc-fusion (UniProt Q96LC7 17-550).
T1 chain: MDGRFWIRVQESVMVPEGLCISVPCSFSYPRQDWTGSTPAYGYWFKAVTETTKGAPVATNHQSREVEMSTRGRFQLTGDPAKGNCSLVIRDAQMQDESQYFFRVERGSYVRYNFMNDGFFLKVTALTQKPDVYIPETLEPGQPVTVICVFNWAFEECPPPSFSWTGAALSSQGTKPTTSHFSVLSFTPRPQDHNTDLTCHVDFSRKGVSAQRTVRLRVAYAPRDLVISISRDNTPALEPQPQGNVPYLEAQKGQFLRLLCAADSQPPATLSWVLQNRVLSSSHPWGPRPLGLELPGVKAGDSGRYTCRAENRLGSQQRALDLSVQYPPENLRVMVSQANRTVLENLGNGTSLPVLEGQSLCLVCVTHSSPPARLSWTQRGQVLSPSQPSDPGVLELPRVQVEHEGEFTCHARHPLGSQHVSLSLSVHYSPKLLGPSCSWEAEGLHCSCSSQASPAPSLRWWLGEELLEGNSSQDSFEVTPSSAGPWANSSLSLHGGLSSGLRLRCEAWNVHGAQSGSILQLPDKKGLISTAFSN

The next assay has as its target T2, Siglec-14 Fc-fusion (UniProt Q08ET2 17-358).
T2 chain: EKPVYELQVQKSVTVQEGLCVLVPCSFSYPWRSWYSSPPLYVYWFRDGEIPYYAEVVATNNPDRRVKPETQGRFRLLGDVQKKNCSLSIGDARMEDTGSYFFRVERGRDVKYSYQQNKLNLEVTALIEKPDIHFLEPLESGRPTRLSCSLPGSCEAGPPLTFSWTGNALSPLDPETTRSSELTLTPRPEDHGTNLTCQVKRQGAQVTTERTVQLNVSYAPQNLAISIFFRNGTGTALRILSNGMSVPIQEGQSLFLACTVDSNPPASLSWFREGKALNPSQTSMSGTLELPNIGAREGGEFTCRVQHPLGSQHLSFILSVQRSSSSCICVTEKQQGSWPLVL

A further assay has as its target Siglec-9 Fc-fusion (UniProt Q9Y336 18-348).

Chain of Siglec-9 Fc-fusion (Q9Y336 18-348): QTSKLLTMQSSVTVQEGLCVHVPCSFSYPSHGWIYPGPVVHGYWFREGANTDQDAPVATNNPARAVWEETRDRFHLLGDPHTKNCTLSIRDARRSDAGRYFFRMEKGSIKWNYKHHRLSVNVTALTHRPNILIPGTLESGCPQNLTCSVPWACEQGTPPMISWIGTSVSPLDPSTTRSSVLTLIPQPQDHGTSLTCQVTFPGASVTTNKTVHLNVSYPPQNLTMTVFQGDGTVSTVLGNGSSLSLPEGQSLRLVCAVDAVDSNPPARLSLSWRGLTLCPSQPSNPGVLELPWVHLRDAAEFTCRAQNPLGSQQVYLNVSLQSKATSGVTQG

B1: extracellular domain of PTGFRN (aa 26-832) with a C-terminal histidine tag (domain or fragment)
chain: VPTATLVRVVGTELVIPCNVSDYDGPSEQNFDWSFSSLGSSFVELASTWEVGFPAQLYQERLQRGEILLRRTANDAVELHIKNVQPSDQGHYKCSTPSTDATVQGNYEDTVQVKVLADSLHVGPSARPPPSLSLREGEPFELRCTAASASPLHTHLALLWEVHRGPARRSVLALTHEGRFHPGLGYEQRYHSGDVRLDTVGSDAYRLSVSRALSADQGSYRCIVSEWIAEQGNWQEIQEKAVEVATVVIQPSVLRAAVPKNVSVAEGKELDLTCNITTDRADDVRPEVTWSFSRMPDSTLPGSRVLARLDRDSLVHSSPHVALSHVDARSYHLLVRDVSKENSGYYYCHVSLWAPGHNRSWHKVAEAVSSPAGVGVTWLEPDYQVYLNASKVPGFADDPTELACRVVDTKSGEANVRFTVSWYYRMNRRSDNVVTSELLAVMDGDWTLKYGERSKQRAQDGDFIFSKEHTDTFNFRIQRTTEEDRGNYYCVVSAWTKQRNNSWVKSKDVFSKPVNIFWALEDSVLVVKARQPKPFFAAGNTFEMTCKVSSKNIKSPRYSVLIMAEKPVGDLSSPNETKYIISLDQDSVVKLENWTDASRVDGVVLEKVQEDEFRYRMYQTQVSDAGLYRCMVTAWSPVRGSLWREAATSLSNPIEIDFQTSGPIFNASVHSDTPSVIRGDLIKLFCIITVEGAALDPDDMAFDVSWFAVHSFGLDKAPVLLSSLDRKGIVTTSRRDWKSDLSLERVSVLEFLLQVHGSEDQDFGNYYCSVTPWVKSPTGSWQKEAEIHSKPVFITVKMDVLNAFKYP
For B1, the dissociation constant Kd – broadly, a measure of binding affinity in units of concentration – with Siglec-10 Fc-fusion stood at 760 nM; with Siglec-14 Fc-fusion, 1100 nM; with Siglec-9 Fc-fusion it was 4200 nM.
